This assay addresses SARS-CoV-2 RBD (residues 319–541) (SARS-CoV-2, UniProt P0DTC2). The experiment in a line: BLI.

B1: CR3014 parental (human IgG1) (antibody, V domains shown)
VH: EVQLVESGGGLVQPGGSLRLSCAASGFTFSDHYMDWVRQAPGKGLEWVGRTRNKANSYTTEYAASVKGRFTISRDDSKNSLYLQMNSLKTEDTAVYYCARGISPFYFDYWGQGTLVTVSS
VL: not shown
Take B1: the binding result is “no binding”.

The values are drawn from article PMC8158043 (mAbs, 2021).
